# Molecular target: T1, human IL-23R expressed on the cell surface of stably transfected iLite and HEK cell lines (human, UniProt Q5VWK5 24-629)
# T1 construct: whole, on cells; Same receptor on two transfected cell lines; the cell line is named under assay; also called human IL-23R iLite cells; human IL-23R HEK cells
# T1 sequence (looked up): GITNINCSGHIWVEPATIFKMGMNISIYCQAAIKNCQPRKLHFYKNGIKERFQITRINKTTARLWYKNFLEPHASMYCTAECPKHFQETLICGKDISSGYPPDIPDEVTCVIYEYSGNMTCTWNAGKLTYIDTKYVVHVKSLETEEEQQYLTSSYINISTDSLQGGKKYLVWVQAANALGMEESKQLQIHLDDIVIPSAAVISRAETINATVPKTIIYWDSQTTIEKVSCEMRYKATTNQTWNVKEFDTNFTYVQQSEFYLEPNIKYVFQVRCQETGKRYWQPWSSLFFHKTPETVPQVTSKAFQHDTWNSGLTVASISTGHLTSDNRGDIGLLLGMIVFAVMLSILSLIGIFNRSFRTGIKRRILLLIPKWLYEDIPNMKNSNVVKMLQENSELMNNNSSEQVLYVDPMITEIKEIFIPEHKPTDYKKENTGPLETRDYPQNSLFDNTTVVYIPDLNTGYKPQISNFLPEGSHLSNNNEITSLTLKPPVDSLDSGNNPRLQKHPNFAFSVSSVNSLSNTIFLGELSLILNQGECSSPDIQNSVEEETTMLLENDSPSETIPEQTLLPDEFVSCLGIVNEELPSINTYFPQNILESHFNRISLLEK
# Test: flow cytometry on human IL-23R HEK cells, Expt E (11-point, 384well)
# Method: HEK-IL-23R cell concentration response mAb binding (11-point, 384-well assay). […] IL-23R mAbs were allowed to bind to cells for 30 minutes, at 37° C. […] Cells were next washed twice in ice-cold stain buffer, then resuspended in a final volume of 10 μL with Sytox Green viability dye (ThermoFisher, Cat #S7020). Plates were kept on ice until run for analysis on the iQue. All washes were performed by centrifugation (800 rcf, 3 minutes) followed by automated aspiration to remove supernatants with plate washers. Cell-binding to HEK-IL-23R cells was measured with FlowJo, by gating for single, viable cells and determining the geometric mean fluorescence intensity (MFI) for the 647 detection antibody. Geometric mean fluorescence intensities were plotted over log mAb concentrations fitted with a dose response curve with variable slope using GraphPad Prism.
Binder,EC50,MFI (6.4 nM)
"I23RB67 (antibody, mouse IgG2a, kappa, V domains shown, immunization; mouse IgG2a/kappa) VH: EVQLQQSGAELVKPGASVKLSCKASGYTFTSYWINWVKQRPGQGLEWIGNIYPGSSSTNYNEKFKSKATLTVDTSSSTAYMQLSSLTSDDSAVYYCARSAYGNRLAMDYWGQGTTLTVSS VL: DVVMTQSHKFMSTSVGDRVSITCKASQDVSTAVAWYQQKPGQSPKLLIYSAFYRYTGVPDRFTGSGSGTDFTFTISSVQAEDLAVYYCQQHYSTPYTFGGGTKLELKR",18 nM,80900 MFI
"I23RB87 (antibody, mouse IgG2a, kappa, V domains shown, immunization; mouse IgG2a/kappa) VH: EFQLQQSGPELVKPGTSVKMSCKASGYTFTNYVMHWVKQKPGQGLEWIGYINPYDASPKYNEKFKGKAILTSDKSSSTAYMELSSLTSEDSAVYYCTRDAKLDYFDYWGQGTTLTVSS VL: DIVMTQTTSSLSASLGDRVTISCRASQDISNYLNWYQQKPDGTVKLLIYYTSRLHSGVPSRFSGSGSGTDFSLTISNLEQEDIATYFCQQGITLPWTFGAGTKLELKR",> 50 nM,86100 MFI
"I23RB54 (antibody, mouse IgG2a, kappa, V domains shown, immunization; mouse IgG2a/kappa) VH: EVQLQQSGGGLVKPGGSLKLSCAASGFTFSSYAMSWVRQTPEKRLEWVAGISSGGSYIYYPDNVKGRFTISRDNARNTLYLQMSSLRSEDTAMYYCARKKSDYGAMDYWGQGTTLTVSS VL: DIQMTQSPKFLLVSAGDRVTITCKASQSVSNDVAWYQQKPGQSPRLLIYYASNRYTGVPDRFTGSGYGTDFTFTISTVQAEDLAVYFCQQDYSSLPTFGAGTKLEMKR",35.2 nM,63100 MFI
"I23RB78 (antibody, mouse IgG2a, kappa, V domains shown, immunization; mouse IgG2a/kappa) VH: EFQLQQSGGGLVKPGGSLKLSCAASGFTFSNYTMSWVRQTPEKRLKWVACISSGGGNTYYPDSVKGRFTISRDNARNTLYLQMSSLRSEDTAMYYCARRNYRRAMDYWGQGTSVTVSS VL: DIVMTQSPASLAVSLGQRATISCRASESVDSYGISFMHWYQQKPGQPPKLLIYRASNLESGIPARFSGSGSRTDFTLTINPVEADDVATYYCQQSNEDPWTFGAGTGLEIKR",15.8 nM,84200 MFI
"I23RB102 (antibody, mouse IgG2a, kappa, V domains shown, immunization; mouse IgG2a/kappa) VH: QVQLQQPGAELVKPGASVKVSCKASGYTFTKYWINWMNQRPGQGLEWIGNIYPGSISTNYNEKFKSKVTLTVDISSSTAYMQLSSLTSDDSAVYYCARGDFYALDYWGQGTTLTVSS VL: DIQMTQSPASLSVSVGETVTITCRASENIYSHITWYQLKQGKSPQLLVYASTNLADDVPSRFSGSGSGTQYSLKINSLLSEDFGTYYCQHFWGTPWTFGGGTKLEMKR",8.6 nM,258000 MFI

# Molecular target: T1, human IL-23R expressed on the cell …
# Test: flow cytometry on human IL-23R HEK cells, Expt D (8-point, 96well)
# Method: HEK-IL-23R cell concentration response mAb binding (8-point, 96-well assay). […] HEK-IL-23R and HEK-parental cells (12.5 μL of each, 120000 cells total) were plated in 2× replicate on 96-well V-bottom plates (Corning, Cat #3357) into 37° C. warmed Assay medium containing serially diluted IL-23R mAbs to a final volume of 150 μL. IL-23R mAbs were allowed to bind to cells for 30 minutes, at 37° C. […] Cells were next washed twice in ice-cold stain buffer, then resuspended in a final volume of 30 μL with Sytox Green viability dye (ThermoFisher, Cat #S7020). Plates were kept on ice until run for analysis on the iQue. All washes were performed by centrifugation (800 rcf, 3 minutes) followed by flick decantation to remove supernatants. Cell-binding to HEK-IL-23R cells was measured with FlowJo, by gating for single, viable cells and determining the geometric mean fluorescence intensity (MFI) for the 647 detection antibody. Geometric mean fluorescence intensities were plotted over log mAb concentrations fitted with a dose response curve with variable slope using GraphPad Prism.
row,Binder,EC50
1,"I23RB321 (antibody, mouse IgG2a, kappa, V domains shown, phage display; human V, mouse IgG2a/kappa) VH: QVQLVQSGAEVKKPGSSVKVSCKASGGTFSSYGISWVRQAPGQGLEWMGWISAIFGTTNYAQKFQGRVTITADESTSTAYMELSSLRSEDTAVYYCARHWLQSFDYWGQGTLVTVSS VL: DIQMTQSPSSLSASVGDRVTITCRASQSIGGDLNWYQQKPGKAPKLLIYAASSLQSGVPSRFSGSGSGTDFTLTISSLQPEDFATYYCQQSYSTPLTFGQGTKVEIKR",18.6 nM
2,"I23RB264 (antibody, mouse IgG2a, kappa, V domains shown, phage display; human V, mouse IgG2a/kappa) VH: QVQLVQSGAEVKKPGSSVKVSCKASGGTFSSYAISWVRQAPGQGLEWMGGIIPIFGTANYAQKFQGRVTITADESTSTAYMELSSLRSEDTAVYYCARRSSPGFDYWGQGTLVTVSS VL: DIQMTQSPSSLSASVGDRVTITCRASQSIDNDLNWYQQKPGKAPKLLIYNASSLQSGVPSRFSGSGSGTDFTLTISSLQPEDFATYYCQQPYSIPLTFGQGTKVEIKR",> 50 nM
3,"I23RB261 (antibody, mouse IgG2a, kappa, V domains shown, phage display; human V, mouse IgG2a/kappa) VH: QVQLVQSGAEVKKPGSSVKVSCKASGGTFSSYAISWVRQAPGQGLEWMGWISPYFGTANYAQKFQGRVTITADESTSTAYMELSSLRSEDTAVYYCARMYRQGFDYWGQGTLVTVSS VL: DIQMTQSPSSLSASVGDRVTITCRASQSINDDLNWYQQKPGKAPKLLIYAASSLQSGVPSRFSGSGSGTDFTLTISSLQPEDFATYYCQQSYSTPLTFGQGTKVEIKR",9.2 nM
4,"I23RB319 (antibody, mouse IgG2a, kappa, V domains shown, phage display; human V, mouse IgG2a/kappa) VH: QVQLVQSGAEVKKPGSSVKVSCKASGGTFSSYGISWVRQAPGQGLEWMGWISAIFGTTNYAQKFQGRVTITADESTSTAYMELSSLRSEDTALYYCARPLKQAFDYWGQGTLVTVSS VL: DIQMTQSPSSLSASVGDRVTITCRASQSITDDLNWYQQKPGKAPKLLIYAASSLQSGVPSRFSGSGSGTDFTLTISSLQPEDFATYYCQQSYSTPLTFGQGTKVEIKR",8.7 nM
5,"I23RB313 (antibody, mouse IgG2a, kappa, V domains shown, phage display; human V, mouse IgG2a/kappa) VH: QVQLVQSGAEVKKPGSSVKVSCKASGGTFSSYGISWVRQAPGQGLEWMGWISAIFGTTNYAQKFQGRVTITADESTSTAYMELSSLRSEDTAVYYCARGTVPGFDYWGQGTLVTVSS VL: DIQMTQSPSSLSASVGDRVTITCRASQSIGEDLNWYQQKPGKAPKLLIYAASSLQSGVPSRFSGSGSGTDFTLTISSLQPEDFATYYCQQSYSTPLTFGQGTKVEIKR",> 50 nM
6,"I23RB267 (antibody, mouse IgG2a, kappa, V domains shown, phage display; human V, mouse IgG2a/kappa) VH: EVQLVQSGAEVKKPGESLKISCKGSGYSFTSYWIGWVRQMPGKGLEWMGIIYPGDSDTRYSPSFQGQVTISADKSISTAYLQWSSLKASDTAMYYCARVWYSSWDLDYWGQGTLVTVSS VL: not shown",9.4 nM
7,"I23RB69 (antibody, mouse IgG2a, kappa, V domains shown, immunization; mouse IgG2a/kappa) VH: EVQLQQSGAELVKPGASVKISCKASGYSFTGYNMNWVKQSHGKSLEWIGNINPFYDKTSYNQKFKGKATLTVDKASSTAYMQLNSLTSEDSAVYYCARQLGLKGFAYWGQGTLVTVSA VL: DIVMTQSHKFMSTSVGDRVSITCKASQDVSTAVAWYQQKPGQSPKLLIYSASYRYTGVPDRFTGSGSGTDFTFTISSVQAEDLAVYYCQQHYSTPWTFGGGTKLEMKR",0.6 nM
8,"I23RB260 (antibody, mouse IgG2a, kappa, V domains shown, phage display; human V, mouse IgG2a/kappa) VH: QVQLVQSGAEVKKPGSSVKVSCKASGGTFSSYGISWVRQAPGQGLEWMGGIIPIFGTANYAQKFQGRVTITADESTSTAYMELSSLRSEDTAVYYCARDFGWSLWFDYWGQGTLVTVSS VL: not shown",> 50 nM
9,"I23RB91 (antibody, mouse IgG2a, kappa, V domains shown, immunization; mouse IgG2a/kappa) VH: EFQLQQFGPELLKPGASVKISCKASGYTFTDYIMHWVKQSHGKSLEWIGGISPNYGGTGYNGKFKDKATLTVDKSSSTAYMELRSLTSEDSAVYYCARFNNYYYFDYWGQGTTLTVSS VL: DIKMTQSPSSMYASLGERVTITCKASQDINSYLSWCQQKPGKSPKALIYRANSLVDGVPSRFSGSGSGQDYSLTISSLEYEDMGIYYCLQYDEFPYTFGGGTKLEMKR",30.3 nM
10,"I23RB35 (antibody, mouse IgG2a, kappa, V domains shown, immunization; mouse IgG2a/kappa) VH: DVQLQESGPGLVKPSQSLSLTCSVTGYSITSGHNWNWIRQFPGNKLEWLGYISYDGSNNYDPSLKNRISITRDTSKNQFFLKLNSVTTEDTATYYCARGGGYFGNSYRVFASWGQGTTVTVSS VL: DIVLTQSPASLAVSLGQRATISCRASESVDSYGNSFMHWYQQKPGQPPKLLIYRASNLESEIPARFSGRGSGTDFTLTINPVEADDVATYYCQQSNADPYTFGGGTKLEIKR",0.2 nM
11,"I23RB317 (antibody, mouse IgG2a, kappa, V domains shown, phage display; human V, mouse IgG2a/kappa) VH: QVQLVQSGAEVKKPGSSVKVSCKASGGTFSSYAISWVRQAPGQGLEWMGGIIPIFGTANYAQKFQGRVTITADESTSTAYMELSSLRSEDTAVYYCARGNGVNYHSELDYWGQGTLVTVSS VL: EIVLTQSPATLSLSPGERATLSCRASQSVDSFLAWYQQKPGQAPRLLIYTASNRATGIPARFSGSGSGTDFTLTISSLEPEDFAVYYCQQGNSAPFTFGQGTKVEIKR",31 nM
12,"I23RB180 (antibody, mouse IgG2a, kappa, V domains shown, immunization; mouse IgG2a/kappa) VH: QVTLKESGPGILQPSQTLSLTCSFSGFSLSTYGMGVGWIRQPSGKGLEWLANIWWNDSKYHNAALKSRLTISKDTSKNQVFLKIASVDTADTATYYCGRIDGYYECVDVWGTGTSVTVSS VL: DIQMTQSPASLSASVGETVTITCRASVNIHNYLAWYQQKQGKSPQLLVYNAKTLADGVPSRFSGSGSGTQYSLKINSLQPEDFGSYYCQHFWTTPYMYTFGAGTKLELKR",27.6 nM

# Reference: US20250179196A1 (Janssen / Centocor, published 2025)
